According to article PMC7730851, “Expression of Somatostatin Receptor Subtypes (SSTR-1–SSTR-5) in Pediatric Hematological and Oncological Disorders” (Molecules, 2020):

System: somatostatin receptors (SSTR)
Experiment: Displacement of [125I]RC-160 binding from membranes of human pediatric tumors by unlabeled peptides
Method: Receptor binding affinities and concentrations of SSTRs in tumor membranes were also studied. […] Biochemical specifications and parameters crucial to characterize specific binding sites were also defined. […] Various peptides structurally related or unrelated to SST were used in these studies.
Displacement of [^125I] RC-160 as a radioligand by the unlabeled SST analogs as competitor was determined.
The radioiodinated derivatives of the RC-160 SST analogue were prepared by the chloramine-T method and purified by reverse phase high-performance liquid chromatography (RP-HPLC) as described previously. Somatostatin receptor-binding assays were performed as described previously with some minor modifications, using in vitro ligand competition assays based on the binding of [^125I] RC-160 as a radioligand to membrane fractions of the pediatric samples. This radioiodinated ligand has been well characterized and reported previously and has high affinity for SSTR-2 and SSTR-5 [4]. […] After incubation for 2 h, the binding reactions were stopped, and the bound ligand was separated and counted in a gamma counter. […] The final binding affinities were expressed as IC50 values. Protein concentration was determined by the method of Bradford using a Bio-Rad protein assay kit (Bio-Rad Laboratories, Inc.).

- displacement of [125I]RC-160 binding (membrane fractions of human rhabdomyosarcoma specimen, Figure 3): did not displace
- inhibition/displacement of the binding of radioiodinated RC-160 (pediatric tumor membranes, competitor 10^-12-10^-6 M, concentrations as high as 1 µM): none
B1: epidermal growth factor (EGF): unrelated peptide used as specificity control (protein, UniProt P01133 23-1207, looked up)
Pro-epidermal growth factor: PQHWSCPEGTLAGNGNSTCVGPAPFLIFSHGNSIFRIDTEGTNYEQLVVDAGVSVIMDFHYNEKRIYWVDLERQLLQRVFLNGSRQERVCNIEKNVSGMAINWINEEVIWSNQQEGIITVTDMKGNNSHILLSALKYPANVAVDPVERFIFWSSEVAGSLYRADLDGVGVKALLETSEKITAVSLDVLDKRLFWIQYNREGSNSLICSCDYDGGSVHISKHPTQHNLFAMSLFGDRIFYSTWKMKTIWIANKHTGKDMVRINLHSSFVPLGELKVVHPLAQPKAEDDTWEPEQKLCKLRKGNCSSTVCGQDLQSHLCMCAEGYALSRDRKYCEDVNECAFWNHGCTLGCKNTPGSYYCTCPVGFVLLPDGKRCHQLVSCPRNVSECSHDCVLTSEGPLCFCPEGSVLERDGKTCSGCSSPDNGGCSQLCVPLSPVSWECDCFPGYDLQLDEKSCAASGPQPFLLFANSQDIRHMHFDGTDYGTLLSQQMGMVYALDHDPVENKIYFAHTALKWIERANMDGSQRERLIEEGVDVPEGLAVDWIGRRFYWTDRGKSLIGRSDLNGKRSKIITKENISQPRGIAVHPMAKRLFWTDTGINPRIESSSLQGLGRLVIASSDLIWPSGITIDFLTDKLYWCDAKQSVIEMANLDGSKRRRLTQNDVGHPFAVAVFEDYVWFSDWAMPSVMRVNKRTGKDRVRLQGSMLKPSSLVVVHPLAKPGADPCLYQNGGCEHICKKRLGTAWCSCREGFMKASDGKTCLALDGHQLLAGGEVDLKNQVTPLDILSKTRVSEDNITESQHMLVAEIMVSDQDDCAPVGCSMYARCISEGEDATCQCLKGFAGDGKLCSDIDECEMGVPVCPPASSKCINTEGGYVCRCSEGYQGDGIHCLDIDECQLGEHSCGENASCTNTEGGYTCMCAGRLSEPGLICPDSTPPPHLREDDHHYSVRNSDSECPLSHDGYCLHDGVCMYIEALDKYACNCVVGYIGERCQYRDLKWWELRHAGHGQQQKVIVVAVCVVVLVMLLLLSLWGAHYYRTQKLLSKNPKNPYEESSRDVRSRRPADTEDGMSSCPQPWFVVIKEHQDLKNGGQPVAGEDGQAADGSMQPTSWRQEPQLCGMGTEQGCWIPVSSDKGSCPQVMERSFHMPSYGTQTLEGGVEKPHSLLSANPLWQQRALDPPHQMELTQ
modifications: Pro-epidermal growth factor
notes: unrelated peptide used as specificity control
